{
  "source": "paper PMC7564214",
  "origin": "cited, not measured here",
  "target": "LC3B (Homo sapiens) (UniProt Q9GZQ8)",
  "data": [
    {"substance": "TRIM5α (from UniProt Q9C035)", "values": [
      {"measurement": "Kd", "value": 100, "unit": "µM"}
    ]}
  ]
}
